Measurements from US8461305B2, “L-fucose α1→6 specific lectin” (J-Oil Mills, Inc., priority 2008, dated 2013).

Experiment: frontal affinity chromatography (FAC), association constant to PA sugar chains without L-fucose
Type: binding
Settings: 25 degrees C.
Method in brief: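 Lectin coupled via primary amines to NHS-activated sepharose in a miniature column, run in TBS (pH 7.4) at 0.125 ml/min and 25 degrees C. PA sugar chains (3.75 nM or 7.5 nM) applied in excess, with elution monitored by fluorescence (ex 310/em 380 nm). Ka calculated from front-end delay (V−Vo) versus PA rhamnose and effective ligand amount (Bt).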

B1: Pisum sativum agglutinin (protein)
chain: TETTSFLITKFSPDQQNLIFQGDGYTTKEKLTLTKAVKNTVGRALYSSPIHIWDRETGNVANFVTSFTFVINAPNSYNVADGFTFFIAPVDTKPQTGGGYLGVFNSAEYDKTTQTVAVEFDTFYNAAWDPSNRDRHIGIDVNSIKSVNTKSWKLQNGEEANVVIAFNAATNVLTVSLTYPNSLEEENVTSYTLSDVVSLKDVVPEWVRIGFSATTGAEYAAHEVLSWSFHSELSGTSSSKQAADA
association constant Ka (Sugar chain No. 001): <1000 M⁻¹
association constant Ka (Sugar chain No. 002): <1000 M⁻¹
association constant Ka (Sugar chain No. 003): 7800 M⁻¹
association constant Ka (Sugar chain No. 004): <1000 M⁻¹
association constant Ka (Sugar chain No. 005): 7400 M⁻¹
association constant Ka (Sugar chain No. 006): 7100 M⁻¹
association constant Ka (Sugar chain No. 007): 7800 M⁻¹
association constant Ka (Sugar chain No. 008): 10000 M⁻¹
association constant Ka (Sugar chain No. 009): 7900 M⁻¹
association constant Ka (Sugar chain No. 010): <1000 M⁻¹
association constant Ka (Sugar chain No. 011): <1000 M⁻¹
association constant Ka (Sugar chain No. 012): 17000 M⁻¹
association constant Ka (Sugar chain No. 013): <1000 M⁻¹
association constant Ka (Sugar chain No. 014): 8600 M⁻¹
association constant Ka (Sugar chain No. 101): <1000 M⁻¹
association constant Ka (Sugar chain No. 103): <1000 M⁻¹
association constant Ka (Sugar chain No. 104): <1000 M⁻¹
association constant Ka (Sugar chain No. 105): <1000 M⁻¹
association constant Ka (Sugar chain No. 107): <1000 M⁻¹
association constant Ka (Sugar chain No. 108): <1000 M⁻¹
association constant Ka (Sugar chain No. 301): <1000 M⁻¹
association constant Ka (Sugar chain No. 304): <1000 M⁻¹
association constant Ka (Sugar chain No. 305): <1000 M⁻¹
association constant Ka (Sugar chain No. 307): 2400 M⁻¹
association constant Ka (Sugar chain No. 308): <1000 M⁻¹
association constant Ka (Sugar chain No. 313): <1000 M⁻¹
association constant Ka (Sugar chain No. 314): <1000 M⁻¹
association constant Ka (Sugar chain No. 323): <1000 M⁻¹
association constant Ka (Sugar chain No. 501): <1000 M⁻¹
association constant Ka (Sugar chain No. 502): <1000 M⁻¹
association constant Ka (Sugar chain No. 503): <1000 M⁻¹
association constant Ka (Sugar chain No. 504): <1000 M⁻¹
association constant Ka (Sugar chain No. 701): <1000 M⁻¹
association constant Ka (Sugar chain No. 702): <1000 M⁻¹
association constant Ka (Sugar chain No. 703): <1000 M⁻¹
association constant Ka (Sugar chain No. 704): <1000 M⁻¹
association constant Ka (Sugar chain No. 705): <1000 M⁻¹
association constant Ka (Sugar chain No. 706): <1000 M⁻¹
association constant Ka (Sugar chain No. 707): <1000 M⁻¹
association constant Ka (Sugar chain No. 708): <1000 M⁻¹
association constant Ka (Sugar chain No. 709): <1000 M⁻¹
association constant Ka (Sugar chain No. 710): <1000 M⁻¹
association constant Ka (Sugar chain No. 711): <1000 M⁻¹
association constant Ka (Sugar chain No. 712): <1000 M⁻¹
association constant Ka (Sugar chain No. 713): <1000 M⁻¹
association constant Ka (Sugar chain No. 715): <1000 M⁻¹
association constant Ka (Sugar chain No. 716): <1000 M⁻¹
association constant Ka (Sugar chain No. 717): <1000 M⁻¹
association constant Ka (Sugar chain No. 724): <1000 M⁻¹
association constant Ka (Sugar chain No. 725): <1000 M⁻¹
association constant Ka (Sugar chain No. 728 (as listed in Table 7)): <1000 M⁻¹
association constant Ka (Sugar chain No. 732): <1000 M⁻¹
association constant Ka (Sugar chain No. 733): <1000 M⁻¹
association constant Ka (Sugar chain No. 734): <1000 M⁻¹
association constant Ka (Sugar chain No. 735): <1000 M⁻¹
association constant Ka (Sugar chain No. 736): <1000 M⁻¹
association constant Ka (Sugar chain No. 737): <1000 M⁻¹
association constant Ka (Sugar chain No. 738): <1000 M⁻¹
association constant Ka (Sugar chain No. 901): <1000 M⁻¹
association constant Ka (Sugar chain No. 902): <1000 M⁻¹
association constant Ka (Sugar chain No. 903): <1000 M⁻¹
association constant Ka (Sugar chain No. 905): <1000 M⁻¹
association constant Ka (Sugar chain No. 906): <1000 M⁻¹
association constant Ka (Sugar chain No. 907): <1000 M⁻¹
